Paper PMC6006248, “CARK1 mediates ABA signaling by phosphorylation of ABA receptors” (Cell Discovery, 2018)
Blank lines part the entries; values can stand above or below the molecule they belong to.

Key:
CARK1-KD = target: T1, CARK1-KD (Arabidopsis thaliana, UniProt Q9LUT0); assay: in vitro kinase assay, […] autoradiography; type: biochemical; settings: labelled compound; autophosphorylation and phosphorylation of RCAR3/RCAR11
T1 construct: kinase domain, residues 50-353, 6xHis fusion (pET28a), E. coli Rosetta (DE3)
T1 sequence (Q9LUT0 50-353): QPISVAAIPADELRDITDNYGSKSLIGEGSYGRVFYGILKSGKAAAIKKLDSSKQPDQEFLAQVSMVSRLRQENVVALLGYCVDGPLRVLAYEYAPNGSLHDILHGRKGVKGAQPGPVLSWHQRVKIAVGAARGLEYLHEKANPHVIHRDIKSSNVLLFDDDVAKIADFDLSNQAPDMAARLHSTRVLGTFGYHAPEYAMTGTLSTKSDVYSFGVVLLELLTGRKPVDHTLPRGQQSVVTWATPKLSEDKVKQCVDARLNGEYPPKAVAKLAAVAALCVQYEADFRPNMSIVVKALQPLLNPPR

[1] = target: ABI1 (Clade A PP2C) (Arabidopsis) (UniProt P49597)
RCAR11 (PYR1) with ABI1 = target: T2, RCAR11 (PYR1) with ABI1 (Arabidopsis thaliana, UniProt O49686); assay: in vitro Ser/Thr phosphatase assay of ABI1; type: biochemical; settings: read-out is receptor-dependent inhibition of ABI1
T2 construct: recombinant receptor plus ABI1 phosphatase; tags and borders for this assay only in supplement; receptor dimeric; with Protein phosphatase 2C 56
T2 sequence (O49686 1-191): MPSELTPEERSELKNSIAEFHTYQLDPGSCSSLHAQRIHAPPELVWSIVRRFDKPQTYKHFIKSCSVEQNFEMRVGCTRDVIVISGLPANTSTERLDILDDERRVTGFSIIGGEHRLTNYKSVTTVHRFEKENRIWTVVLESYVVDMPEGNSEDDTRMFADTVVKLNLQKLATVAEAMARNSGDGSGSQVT
T2 sequence (P49597 1-434 partner): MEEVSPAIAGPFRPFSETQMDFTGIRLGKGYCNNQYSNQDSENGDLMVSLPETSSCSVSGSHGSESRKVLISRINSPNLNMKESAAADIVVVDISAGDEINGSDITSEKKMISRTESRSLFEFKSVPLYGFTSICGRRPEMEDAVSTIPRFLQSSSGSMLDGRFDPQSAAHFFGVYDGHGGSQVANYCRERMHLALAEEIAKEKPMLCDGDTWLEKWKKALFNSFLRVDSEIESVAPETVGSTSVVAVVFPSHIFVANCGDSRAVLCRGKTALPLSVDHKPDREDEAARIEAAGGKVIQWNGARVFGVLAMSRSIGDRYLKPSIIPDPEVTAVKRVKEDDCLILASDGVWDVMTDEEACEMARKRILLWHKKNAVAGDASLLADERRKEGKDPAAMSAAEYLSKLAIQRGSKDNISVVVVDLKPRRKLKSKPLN

RCAR3 (PYL8) with ABI1 = target: T3, RCAR3 (PYL8) with ABI1 (Arabidopsis thaliana, UniProt Q9FGM1); assay: in vitro Ser/Thr phosphatase assay of ABI1; type: biochemical; settings: read-out is receptor-dependent inhibition of ABI1
T3 construct: recombinant receptor plus ABI1 phosphatase; tags and borders for this assay only in supplement; receptor monomeric; with Protein phosphatase 2C 56
T3 sequence (Q9FGM1 1-188): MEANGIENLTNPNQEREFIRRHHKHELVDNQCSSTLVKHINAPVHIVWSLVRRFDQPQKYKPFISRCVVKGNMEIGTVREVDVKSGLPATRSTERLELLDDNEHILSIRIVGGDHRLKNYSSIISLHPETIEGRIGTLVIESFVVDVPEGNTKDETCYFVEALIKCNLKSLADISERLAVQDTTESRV
T3 sequence (P49597 1-434 partner): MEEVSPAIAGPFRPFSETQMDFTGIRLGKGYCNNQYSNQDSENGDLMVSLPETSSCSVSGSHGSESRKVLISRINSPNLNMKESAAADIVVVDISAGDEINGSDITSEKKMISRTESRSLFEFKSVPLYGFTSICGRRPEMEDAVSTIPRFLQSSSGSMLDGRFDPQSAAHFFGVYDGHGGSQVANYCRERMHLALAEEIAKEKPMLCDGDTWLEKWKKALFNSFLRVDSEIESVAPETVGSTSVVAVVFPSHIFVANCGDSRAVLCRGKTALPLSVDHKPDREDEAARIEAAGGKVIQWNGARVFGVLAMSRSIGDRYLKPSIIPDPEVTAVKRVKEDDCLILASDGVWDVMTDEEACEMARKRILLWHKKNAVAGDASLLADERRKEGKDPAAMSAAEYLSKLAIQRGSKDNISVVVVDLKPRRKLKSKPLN

ABI1 (Clade A PP2C) [2] = target: T4, ABI1 (Clade A PP2C) (Arabidopsis, UniProt P49597 1-434); assay: SPR; in vitro; who was immobilised and the conditions are not told in the main text (Supplementary Fig. S7A-E); settings: both partners purified
T4 construct: Protein phosphatase 2C ABI1, Arabidopsis; source: purified with the similar procedures as described for CARK1-KD
T4 sequence (looked up): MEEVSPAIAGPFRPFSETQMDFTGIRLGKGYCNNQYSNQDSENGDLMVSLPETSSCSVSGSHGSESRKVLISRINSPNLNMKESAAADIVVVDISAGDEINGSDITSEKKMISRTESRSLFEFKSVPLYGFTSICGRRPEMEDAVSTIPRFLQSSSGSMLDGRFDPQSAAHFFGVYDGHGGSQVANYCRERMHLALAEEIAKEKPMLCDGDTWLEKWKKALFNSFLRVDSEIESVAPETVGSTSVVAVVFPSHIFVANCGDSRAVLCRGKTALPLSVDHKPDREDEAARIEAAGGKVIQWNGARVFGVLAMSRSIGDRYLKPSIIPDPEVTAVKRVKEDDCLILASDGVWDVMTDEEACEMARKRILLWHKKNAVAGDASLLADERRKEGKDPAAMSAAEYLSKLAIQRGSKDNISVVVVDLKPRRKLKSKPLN

ABI1 (Clade A PP2C) [3] = target: T5, ABI1 (Clade A PP2C) (Arabidopsis, UniProt P49597 1-434); assay: SPR
T5 chain: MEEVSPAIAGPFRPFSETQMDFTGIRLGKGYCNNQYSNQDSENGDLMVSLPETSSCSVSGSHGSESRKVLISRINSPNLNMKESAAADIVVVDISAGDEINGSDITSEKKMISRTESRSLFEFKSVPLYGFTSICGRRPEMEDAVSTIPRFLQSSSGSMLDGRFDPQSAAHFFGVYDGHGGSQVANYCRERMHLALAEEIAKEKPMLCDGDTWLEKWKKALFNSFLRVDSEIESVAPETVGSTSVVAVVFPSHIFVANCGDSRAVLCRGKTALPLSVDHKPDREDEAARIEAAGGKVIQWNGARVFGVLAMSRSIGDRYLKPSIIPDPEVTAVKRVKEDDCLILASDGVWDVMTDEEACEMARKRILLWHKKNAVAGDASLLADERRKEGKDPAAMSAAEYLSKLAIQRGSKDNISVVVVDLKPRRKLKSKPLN

Molecule: Nc1ncnc2c1ncn2[C@@H]1O[C@H](COP(=O)(O)OP(=O)(O)OP(=O)(O)O)[C@@H](O)[C@H]1O [ATP]
in vitro kinase assay, 32P autoradiography (CARK1-KD): wild-type CARK1-KD showed strong autophosphorylation activity

phosphatase activity of ABI1 in vitro, without ABA: inhibitory effect [1]: 28%
Molecule: RCAR11^T78D (phosphor-mimic form of RCAR11) (from UniProt O49686 1-191) (receptor)

Molecule: CC1=CC(=O)CC(C)(C)[C@@]1(O)/C=C/C(C)=C\C(=O)O [ABA]
in vitro Ser/Thr phosphatase assay of ABI1 (RCAR11 (PYR1) with ABI1): phosphatase activity of ABI1 was totally abolished by either forms of RCAR3/RCAR11
in vitro Ser/Thr phosphatase assay of ABI1 (RCAR3 (PYL8) with ABI1): phosphatase activity of ABI1 was totally abolished by either forms of RCAR3/RCAR11

Kd (ABI1 (Clade A PP2C) [2]): 0.88 µM
koff (ABI1 (Clade A PP2C) [3]): 0.000822 s⁻¹
B1: wild-type RCAR3 (purified, SPR and phosphatase assay) (receptor, Arabidopsis, UniProt Q9FGM1 1-188, looked up)
chain: MEANGIENLTNPNQEREFIRRHHKHELVDNQCSSTLVKHINAPVHIVWSLVRRFDQPQKYKPFISRCVVKGNMEIGTVREVDVKSGLPATRSTERLELLDDNEHILSIRIVGGDHRLKNYSSIISLHPETIEGRIGTLVIESFVVDVPEGNTKDETCYFVEALIKCNLKSLADISERLAVQDTTESRV
notes: ABA receptor RCAR3 (PYL8), Arabidopsis; a His-tagged RCAR3 is named for the in-gel kinase assay; also called PYL8; source: purified with the similar procedures as described for CARK1-KD

Kd (ABI1 (Clade A PP2C) [2]): ~6.4 µM
B2: RCAR3^T77A (receptor, Arabidopsis, UniProt Q9FGM1 1-188, looked up)
chain: MEANGIENLTNPNQEREFIRRHHKHELVDNQCSSTLVKHINAPVHIVWSLVRRFDQPQKYKPFISRCVVKGNMEIGAVREVDVKSGLPATRSTERLELLDDNEHILSIRIVGGDHRLKNYSSIISLHPETIEGRIGTLVIESFVVDVPEGNTKDETCYFVEALIKCNLKSLADISERLAVQDTTESRV
notes: ABA receptor RCAR3 (PYL8), Arabidopsis, with T77A; source: purified with the similar procedures as described for CARK1-KD
